Where no end group is shown, it is not given here.

One test concerns the target NYAD-36. Description: ITC. As to conditions: both partners purified.
The next test has as its target NYAD-67. The test can be described thus: ITC. As to conditions: both partners purified.

As to CTRPNYNKRKRIHIGPGRAFYTTKNIIGTIRQAHC (also: cyclic (mode not given here)) [full-length cyclic V3 loop peptide], the equilibrium dissociation constant (Kd) turned out to be 350 ± 30 nM with NYAD-36 and 990 ± 40 nM in the test with NYAD-67.

What is called Kd is the concentration at which binding is half-saturated. Lower therefore signals higher affinity.

(Values after publication PMC3842668, “Dual-acting stapled peptides target both HIV-1 entry and assembly” (Retrovirology, 2013).)
